# Assay results published in patent publication US20010043931A1, “Human respiratory syncytial virus” (Whitehead Institute for Biomedical Research, priority 1999, published 2001).
# T1: HRSV-N51 peptide (residues 157-207 of HRSV F0) (human respiratory syncytial virus …)
# T1 construct: Made by proteinase K trimming of the HRSV-N57/C45 complex
# T1 peptide: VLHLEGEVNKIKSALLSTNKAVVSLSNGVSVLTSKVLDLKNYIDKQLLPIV
# Assays:
# [1] = Thermal denaturation followed by circular dichroism (CD) spectroscopy; assay type: physicochemical; settings: at 10 μM in PBS
# Procedure: CD spectra were measured at protein concentration 10 μM in PBS buffer using an AVIV 62 DS spectrometer (Aviv Associates, Lakewood, N.J.), as described (Fass, D. & Kim, P. S., Curr. Biol., 5:1377-1383 (1995).
# [2] = target: T1, HRSV-N51 peptide (residues 157-207 of …); assay: complex left after proteinase K digestion of HRSV-N57/C45; CD thermal melt
Molecule,apparent Tm [1],binding result [2]
"HRSV-C45: C-terminal trypsin fragment of recRSV-1, residues 476-520 of HRSV F0 (SEQ ID NO.: 2) (NFYDPLVFPSDEFDASISQVNEKINQSLAFIRKSDELLHNVNAGK)",does not show a thermal unfolding transition,–
"HRSV-N57: N-terminal trypsin fragment of recRSV-1, residues 153-209 of HRSV F0 (SEQ ID NO.: 1) (AVSKVLHLEGEVNKIKSALLSTNKAVVSLSNGVSVLTSKVLDLKNYIDKQLLPIVNK)",40-50 °C,–
VFPSDEFDASISQVNEKINQSLAFIRKSDELLHNVNAGK (Made by proteinase K trimming of the HRSV-N57/C45 complex) [HRSV-C39 peptide (residues 482-520 of HRSV F0)],–,binds
